In publication PMC4287489, “Ribose 5-Phosphate Isomerase B Knockdown Compromises Trypanosoma brucei Bloodstream Form Infectivity” (PLoS Neglected Tropical Diseases, 2015):
Values belong to the molecule of their own block, whether it stands above or below them.

Legend:
[1] = system: O=C(CO)[C@H](O)[C@H](O)COP(=O)(O)O; assay: purified protein
[2] = target: T1, Trypanosoma brucei ribose 5-phosphate isomerase B (TbRpiB) (Trypanosoma brucei, UniProt Q384D1); assay: spectrophotometric isomerase assay ([…] nm) and cysteine-carbazole assay; Ki from Kmapp/Vmax plot; IC50 […]; format: biochemical
T1 construct: gene Tb11.01.0700; recombinant N-terminal 6xHis-tagged TbRpiB expressed in E. coli; 155 residues per monomer

[3] = target: T2, Trypanosoma cruzi ribose 5-phosphate isomerase B (TcRpiB) (Trypanosoma cruzi, UniProt Q4DBP9); assay: spectrophotometric isomerase assay; Ki from Kmapp/Vmax plot; IC50 […]; format: biochemical
T2 construct: gene Tc00.1047053508601.119; recombinant N-terminal 6xHis-tagged TcRpiB (CL Brener Non-Esmeraldo-like) expressed in E. coli; 159 residues per monomer

[4] = target: T2, Trypanosoma cruzi ribose 5-phosphate isomerase B (TcRpiB); assay: enzyme kinetics (Km), direct spectrophotometric assay at […] nm; format: biochemical

T2 sequence (Q4DBP9 entry or part of it): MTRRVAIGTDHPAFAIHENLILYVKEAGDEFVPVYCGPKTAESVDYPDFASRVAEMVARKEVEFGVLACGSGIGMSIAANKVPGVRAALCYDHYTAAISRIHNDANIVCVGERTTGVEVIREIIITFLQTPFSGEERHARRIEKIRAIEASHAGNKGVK
T1 sequence (Q384D1 entry or part of it): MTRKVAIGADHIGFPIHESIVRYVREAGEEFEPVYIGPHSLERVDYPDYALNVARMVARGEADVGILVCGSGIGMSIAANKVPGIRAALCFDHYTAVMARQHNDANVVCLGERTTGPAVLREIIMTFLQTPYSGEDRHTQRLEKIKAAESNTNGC

Molecule: Trypanosoma brucei ribose 5-phosphate isomerase B (TbRpiB) (Trypanosoma brucei brucei TREU927)
- Km [1]: 2390 ± 940 µM
- kcat [1]: 39.4 ± 5.32 s⁻¹
- kcat/Km [1]: 16400 M⁻¹ s⁻¹

- Ki [2]: 2200 µM
- Ki [3]: 1600 µM
Molecule: O=C(NO)[C@H](O)[C@H](O)COP(=O)(O)O [4-PEH, 4-deoxy-4-phospho-D-erythronohydroxamic acid]

Molecule: O=P(O)(O)OC[C@H]1OC(O)[C@H](O)[C@@H]1O (stereo partly drawn) [R5P, D-ribose 5-phosphate]
- enzyme kinetics (Km), direct spectrophotometric assay at 290 nm [4]: enzymes have in vitro ribose 5-phosphate isomerase activity, as these proteins can use both R5P and Ru5P as substrates
